In patent US20190177408A1 (SUZHOU CONNECT BIOPHARMACEUTICALS, published 2019):

B1: L1000H1007 (antibody, V domains shown)
VH: EVQLVQSGGGLVHPGGSLRLSCAGSGFTFSRNAMFWVRQAPGKGLEWVSGIGTGGATSYADSVKGRFTISRDNAKNSLYLQMNSLRAEDMAVYYCARGRYYFDYWGQGTLVTVSS
VL: not shown
notes: human kappa
B2: L1000H1008 (antibody, V domains shown)
VH: EVQLVQSGGGLVHPGGSLRLSCAGSGFTFSRNAMFWVRQAPGKGLEWVSGIGTGGATNYADSVKGRFTISRDNAKNSLYLQMNSLRAEDTAVYYCARGRYYFDYWGQGTLVTVSS
VL: not shown
notes: human kappa
B3: L1000H1010 (antibody, V domains shown)
VH: EVQLVQSGGGLVQPGGSLRLSCAGSGFTFSRNAMFWVRQAPGKGLEWVSGIGTGGATNYADSVKGRFTISRDNAKNSLYLQMNSLRAEDMAVYYCARGRYYFDYWGQGTLVTVSS
VL: not shown
notes: human kappa
B4: L1000H1012 (antibody, V domains shown)
VH: EVQLVQSGGGLVHPGGSLRLSCAGSGFTFSRNAMFWVRQAPGKGLEWVSGIGTGGATSYADSVKGRFTISRDNAKNSLYLQMNSLRAEDTAVYYCARGRYYFDYWGQGTLVTVSS
VL: not shown
notes: human kappa
B5: L1000H1013 (antibody, V domains shown)
VH: EVQLVESGGGLVHPGGSLRLSCAASGFTFSRNAMFWVRQAPGKGLEWVSGIGTGGATNYADSVKGRFTISRDNAKNSLYLQMNSLRAEDMAVYYCARGRYYFDYWGQGTLVTVSS
VL: not shown
notes: human kappa
B6: L1000H1020 (antibody, V domains shown)
VH: EVQLVQSGGGLVHPGGSLRLSCAGSGFTFSRNAMFWVRQAPGKGLEWVSGIGTGGATSYADSVKGRFTISRDNAKNSLYLQMNSLRAEDMAVYYCARGRYYFPWWGQGTLVTVSS
VL: not shown
notes: human kappa
B7: L1000H1021 (antibody, V domains shown)
VH: EVQLVQSGGGLVHPGGSLRLSCAGSGFTFSRNAMFWVRQAPGKGLEWVSGIGTGGATNYADSVKGRFTISRDNAKNSLYLQMNSLRAEDTAVYYCARGRYYFPWWGQGTLVTVSS
VL: not shown
notes: human kappa
B8: L1000H1022 (antibody, V domains shown)
VH: EVQLVQSGGGLVHPGGSLRLSCAGSGFTFSRNAMFWVRQAPGKGLEWVSGIGTGGATSYADSVKGRFTISRDNAKNSLYLQMNSLRAEDTAVYYCARGRYYFPWWGQGTLVTVSS
VL: not shown
notes: human kappa
B9: L1000H1024 (antibody, V domains shown)
VH: EVQLVQSGGGLVQPGGSLRLSCAGSGFTFSRNAMFWVRQAPGKGLEWVSGIGTGGATSYADSVKGRFTISRDNAKNSLYLQMNSLRAEDTAVYYCARGRYYFPWWGQGTLVTVSS
VL: not shown
notes: human kappa
B10: L1000H1025 (antibody, V domains shown)
VH: EVQLVQSGGGLVHPGGSLRLSCAASGFTFSRNAMFWVRQAPGKGLEWVSGIGTGGATSYADSVKGRFTISRDNAKNSLYLQMNSLRAEDTAVYYCARGRYYFPWWGQGTLVTVSS
VL: not shown
notes: human kappa
B11: L1000H1026 (antibody, V domains shown)
VH: EVQLVESGGGLVQPGGSLRLSCAGSGFTFSRNAMFWVRQAPGKGLEWVSGIGTGGATSYADSVKGRFTISRDNAKNSLYLQMNSLRAEDTAVYYCARGRYYFPWWGQGTLVTVSS
VL: not shown
notes: human kappa
B12: L1000H1027 (antibody, V domains shown)
VH: EVQLVESGGGLVHPGGSLRLSCAASGFTFSRNAMFWVRQAPGKGLEWVSGIGTGGATSYADSVKGRFTISRDNAKNSLYLQMNSLRAEDTAVYYCARGRYYFPWWGQGTLVTVSS
VL: not shown
notes: human kappa
B13: L1000H1028 (antibody, V domains shown)
VH: EVQLVQSGGGLVQPGGSLRLSCAASGFTFSRNAMFWVRQAPGKGLEWVSGIGTGGATSYADSVKGRFTISRDNAKNSLYLQMNSLRAEDTAVYYCARGRYYFPWWGQGTLVTVSS
VL: not shown
notes: human kappa
B14: L1000H1029 (antibody, V domains shown)
VH: EVQLVESGGGLVQPGGSLRLSCAASGFTFSRNAMFWVRQAPGKGLEWVSGIGTGGATSYADSVKGRFTISRDNAKNSLYLQMNSLRAEDMAVYYCARGRYYFPWWGQGTLVTVSS
VL: not shown
notes: human kappa
B15: L1000H1030 (antibody, V domains shown)
VH: EVQLVESGGGLVQPGGSLRLSCAASGFTFSRNAMFWVRQAPGKGLEWVSGIGTGGATNYADSVKGRFTISRDNAKNSLYLQMNSLRAEDTAVYYCARGRYYFPWWGQGTLVTVSS
VL: not shown
notes: human kappa
B16: L1000H1031 (antibody, V domains shown)
VH: EVQLVESGGGLVQPGGSLRLSCAASGFTFSRNAMFWVRQAPGKGLEWVSGIGTGGATSYADSVKGRFTISRDNAKNSLYLQMNSLRAEDTAVYYCARGRYYFDYWGQGTLVTVSS
VL: not shown
notes: human kappa
B17: L1000H1035 (antibody, V domains shown)
VH: EVQLVQSGGGLVHPGGSLRLSCAGSGFTFSRNAMHWVRQAPGKGLEWVSGIGTGGATNYADSVKGRFTISRDNAKNSLYLQMNSLRAEDMAVYYCARGRYYFDYWGQGTLVTVSS
VL: not shown
notes: human kappa
B18: L1000H1036 (antibody, V domains shown)
VH: EVQLVQSGGGLVHPGGSLRLSCAGSGFTFSRNAMFWVRQAPGEGLEWVSGIGTGGATNYADSVKGRFTISRDNAKNSLYLQMNSLRAEDMAVYYCARGRYYFDYWGQGTLVTVSS
VL: not shown
notes: human kappa
B19: L1000H1037 (antibody, V domains shown)
VH: EVQLVQSGGGLVHPGGSLRLSCAGSGFTFSRNAMFWVRQAPGKGLEWVSGIGTGGATNYADSVKGRFTISRDEAKNSLYLQMNSLRAEDMAVYYCARGRYYFDYWGQGTLVTVSS
VL: not shown
notes: human kappa
B20: L1007H1000 (antibody, V domains shown)
VH: EVQLVQSGGGLVHPGGSLRLSCAGSGFTFSRNAMFWVRQAPGKGLEWVSGIGTGGATNYADSVKGRFTISRDNAKNSLYLQMNSLRAEDMAVYYCARGRYYFDYWGQGTLVTVSS
VL: not shown
notes: human kappa
B21: L1008H1000 (antibody, V domains shown)
VH: EVQLVQSGGGLVHPGGSLRLSCAGSGFTFSRNAMFWVRQAPGKGLEWVSGIGTGGATNYADSVKGRFTISRDNAKNSLYLQMNSLRAEDMAVYYCARGRYYFDYWGQGTLVTVSS
VL: not shown
notes: human kappa
B22: L1010H1000 (antibody, V domains shown)
VH: EVQLVQSGGGLVHPGGSLRLSCAGSGFTFSRNAMFWVRQAPGKGLEWVSGIGTGGATNYADSVKGRFTISRDNAKNSLYLQMNSLRAEDMAVYYCARGRYYFDYWGQGTLVTVSS
VL: not shown
notes: human kappa
B23: L1011H1000 (antibody, V domains shown)
VH: EVQLVQSGGGLVHPGGSLRLSCAGSGFTFSRNAMFWVRQAPGKGLEWVSGIGTGGATNYADSVKGRFTISRDNAKNSLYLQMNSLRAEDMAVYYCARGRYYFDYWGQGTLVTVSS
VL: EIVLTQSPGTLSLSPGERATLSCRASQSVSNSYLAWYQQKPGQAPRLLIFGASSRAPGIPDRFSGSGSGTDFTLTISRLEPEDFAVYYCQQYGSSPPWTFGQGTKVEIK
notes: human kappa
B24: L1012H1000 (antibody, V domains shown)
VH: EVQLVQSGGGLVHPGGSLRLSCAGSGFTFSRNAMFWVRQAPGKGLEWVSGIGTGGATNYADSVKGRFTISRDNAKNSLYLQMNSLRAEDMAVYYCARGRYYFDYWGQGTLVTVSS
VL: not shown
notes: human kappa
B25: L1012H1007 (antibody, V domains shown)
VH: EVQLVQSGGGLVHPGGSLRLSCAGSGFTFSRNAMFWVRQAPGKGLEWVSGIGTGGATSYADSVKGRFTISRDNAKNSLYLQMNSLRAEDMAVYYCARGRYYFDYWGQGTLVTVSS
VL: not shown
notes: human kappa
B26: L1012H1020 (antibody, V domains shown)
VH: EVQLVQSGGGLVHPGGSLRLSCAGSGFTFSRNAMFWVRQAPGKGLEWVSGIGTGGATSYADSVKGRFTISRDNAKNSLYLQMNSLRAEDMAVYYCARGRYYFPWWGQGTLVTVSS
VL: not shown
notes: human kappa
B27: L1012H1029 (antibody, V domains shown)
VH: EVQLVESGGGLVQPGGSLRLSCAASGFTFSRNAMFWVRQAPGKGLEWVSGIGTGGATSYADSVKGRFTISRDNAKNSLYLQMNSLRAEDMAVYYCARGRYYFPWWGQGTLVTVSS
VL: not shown
notes: human kappa
B28: L1012H1031 (antibody, V domains shown)
VH: EVQLVESGGGLVQPGGSLRLSCAASGFTFSRNAMFWVRQAPGKGLEWVSGIGTGGATSYADSVKGRFTISRDNAKNSLYLQMNSLRAEDTAVYYCARGRYYFDYWGQGTLVTVSS
VL: not shown
notes: human kappa

Molecular target: T1, human soluble IL-4Rα (sIL-4Rα) (human, UniProt P24394 26-232)
T1 construct: Bought reagent (PEPRO TECH, Catalog Number 200-04R); also called shIL-4Rα; soluble hIL-4 Rα
T1 sequence: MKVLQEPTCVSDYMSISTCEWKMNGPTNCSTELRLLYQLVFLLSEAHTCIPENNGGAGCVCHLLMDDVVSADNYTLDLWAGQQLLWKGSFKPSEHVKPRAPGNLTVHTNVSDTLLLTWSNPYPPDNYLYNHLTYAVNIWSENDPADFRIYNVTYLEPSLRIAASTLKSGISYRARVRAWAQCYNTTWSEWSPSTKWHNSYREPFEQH
Experiment: ELISA, coated sIL-4Rα, culture supernatant
Procedure: 100 μl of 100 μg/ml sIL-4Rα solution was added to 9.90 ml of PBS, mixed up and down, and then an antigen coating buffer of 1.0 μg/ml was obtained. The prepared antigen coating buffer was added to a 96-well ELISA plate (Corning) with a volume of 100 μl per well. The 96-well ELISA plate was incubated overnight in a refrigerator at 4° C. On the next day; the solution therein was discarded; and PBS containing 2% BSA was added to the 96-well ELISA plate row by row with a volume of 300 μl per well. The 96-well ELISA plate was incubated for 2 hours in a refrigerator at 4° C., Then the PBS containing 2% BSA was discarded and the plate was washed 3 times with PBST. Diluted antibodies to be tested were sequentially added to the corresponding wells, while the normal cell culture supernatants, as negative control samples, were added too. Three duplicate wells were made for each sample with a volume of 100 μl per well. The ELISA plate was wrapped with preservative film (or covered) and incubated for 1 h at […] in a constant temperature incubator. Subsequently, the 96-well ELISA plate was taken out, and the solution therein was discarded. After washing with PBST for 3 times, TMB solution (Solarbio, Catalog Number: PR1200) was added to the 96-well ELISA plate row by row with a volume of 100 μl per well. The 96-well ELISA plate was placed at room temperature for 5 minutes, and 2 M H2SO4 solution was added in immediately to terminate the reaction. The 96-well ELISA plate was placed in flexstation 3 (Molecular Devices), the values of OD450 were read, and the data were collected, calculated and analyzed. Results were expressed relative to the affinity of control antibody 1.

| Binder | OD 450/OD450Control antibody 1 |
| --- | --- |
| B1 | 0.37 |
| B2 | 0.21 |
| B3 | 0.11 |
| B4 | 0.18 |
| B5 | 0.38 |
| B6 | 0.23 |
| B7 | 0.35 |
| B8 | 0.18 |
| B9 | 0.26 |
| B10 | 0.21 |
| B11 | 0.11 |
| B12 | 0.44 |
| B13 | 0.33 |
| B14 | 0.8 |
| B15 | 0.2 |
| B16 | 1.14 |
| B17 | 0.22 |
| B18 | 0.1 |
| B19 | -0.01 |
| B20 | 0.8 |
| B21 | 0.9 |
| B22 | 1 |
| B23 | 0.9 |
| B24 | 1.22 |
| B25 | 0.4 |
| B26 | 0.11 |
| B27 | 0.11 |
| B28 | 0.16 |
